Test results from article PMC3462190, “A Peptidic Unconjugated GRP78/BiP Ligand Modulates the Unfolded Protein Response and Induces Prostate Cancer Cell Death” (PLoS ONE, 2012).

What was measured:
[1] = system: unfolded protein response in 22Rv.1 cells; experiment: UPR modulation, Western blot / PCR in 22Rv.1 cells; format: cell-based
Protocol: Unless otherwise stated, stable transfection was carried out in 22Rv.1 or BPH-1 cells with 10 µg of plasmid DNA using FuGene 6™ (Roche Diagnostics Mannheim, Germany) Stably transfected 22Rv.1 cells were selected with 0.8 mg/ml while BPH-1 cell clones were selected with 1.2 mg/ml G418. LNCaP, PC3, DU145, PNT-2 and RWPE-1 cell clones were selected with 1 mg/ml G418. Specific downregulation of GRP78 expression was achieved by transfecting siRNA-duplexes (GRP78∶5′-[…]-3′) twice in 72 h using HiPerfect™ (Qiagen Hilden, Germany). siRNA against GFP (5′-[…]-3′) was used as a control. Western blot analysis was performed as previously described.
Figure 3 The Bag-1 peptide modulates the UPR and sensitizes 22Rv.1 cells to ER-stress. A. UPR modulation upon Bag-1 peptide overexpression. Pooled clones of 22Rv.1 cells transfected with pcDNA3.1-HA-Bag-1 68 amino acid peptide or an empty expression vector were treated with 300 nM thapsigargin (TG) for the indicated time points. Cells were lysed and subjected to Western blot analysis using the indicated antibodies or phospho-specific antibodies. B. The Bag-1 peptide sensitizes 22Rv.1 cells to ER-stress induced apoptosis. Pooled clones of 22Rv.1 transfected with the Bag-1 peptide or the empty expression vector were treated with thapsigargin (TG) or glucose-starved (GS) for 24 h. The cells were lysed and subjected to Western blot analysis using anti-PARP and caspase 4 specific antibodies. Anti-HA antibody was used to detect the HA-Bag-1 peptide. […] C. […] Pooled clones of 22Rv.1 expressing HA-tagged Bag-1 peptide or an empty expression vector were transfected with GRP78/BiP siRNA or control GFP siRNA. The cells were lysed and Western blot was carried out with anti-PARP, anti-GRP78 and anti-HA antibodies. β-actin antibody was used to determine the level of protein loaded on the gel.
A. Real time PCR analysis of ATF6 gene expression following thapsigargin (300 nM) treatment for the indicated time points in 22Rv.1 cell clones with empty vector control (open bars) and peptide-expressing clones (filled bars). The RNA was extracted using PeqGold RNA pure (PeqLab, Germany) kit according to manufacturer’s instructions. For gene expression analysis, the following primers were used: Rib36 forward 5′-[…]-3′; reverse 5′-CCGGATATGAGGCAGCAG-3′; ATF6 forward 5′-[…]-3′; reverse 5′-[…]-3′. Each bar represents the mean of three independent experiments ± SEM. *p<0.05. B. Western blot analysis of ATF6 and its cleaved product (cATF6) in LNCaP cells stably expressing the empty vector control or the Bag-1 peptide. Anti-ATF6 specific antibody and an anti-HA specific antibody were used for the Western blot. β-actin antibody was used to determine equal loading control. Mouse monoclonal anti-ATF6 antibody was purchased from Imgenex (Hamburg, Germany), mouse monoclonal anti-HA antibody (HA.11 clone 16B12) was purchased from Covance (Munich, Germany) and anti-β-actin antibody was purchased from Abcam (Cambridge, UK). (TIF) Click here for additional data file.
Supplementary file pone.0045690.s004.tif: Figure S4 The Bag-1 peptide induces GCN2 phosphorylation. 22Rv.1 cells stably expressing the empty vector control or the Bag-1 peptide were treated with thapsigargin (300 nM) for 16 h and subjected to Western blot analysis using anti-phospho-GCN2, GCN2 and HA-specific antibodies. The filters used in this experiment for the GCN2 signals are the same filters used in Figure 3A. The HA-Bag-1 peptide and the β-actin signals are therefore identical to that of Figure 3A. (TIF) Click here for additional data file.

[2] = system: 22Rv.1 cells; experiment: CellTiter-Blue proliferation/viability assay; format: cell-based; details: 22Rv.1 clones P25, P29 and P42 vs vector clones V18, V19 and V33; no ER stress; 2 days; at least four independent experiments, p<0.05
Protocol: CellTiter-Blue® cell viability assay kit (Promega) was used for the determination of cell viability. Briefly 22Rv.1 cells stably overexpressing the Bag-1 peptide were seeded into two 96 well plate (4500 cells/well) and the measurements were performed in triplicate. One plate was analyzed at day 0 and the other plate, 2 days later. Three hours after seeding, 20 µl of dye were added to each well containing 100 µl of culture medium and incubated for 4 h at 37°C. Fluorescence was measured by the plate-reading fluorometer FluoStar Optima (2001, BMG Labtechnology, software version 1.10–0) and presented as the ratio of the value at the excitation wavelength (560 nm) over the emission wavelenght (590 nm). Cell proliferation was determined from the difference between the fluorescence intensity at the final time point and the value obtained at the day of seeding of the cells (day 0).
Figure 4 The Bag-1 peptide inhibits prostate cancer cell growth in vivo. A. Stable clones of 22Rv.1 cells show reduced cell viability in vitro. […] Tumor size was measured once per week using a caliper and expressed as tumor volume in mm^3. […] Nuclei are stained blue-purple with hematoxylin while apoptotic cells detected with the TUNEL assay are stained brown. […]

[3] = Bag-1 peptide expressing 22Rv.1 cells, thapsigargin 300 nM, 16 h
[4] = stable Bag-1 peptide expression, 22Rv.1, thapsigargin 300 nM
[5] = stable Bag-1 peptide expression, 22Rv.1, thapsigargin 300 nM, vs vector control

B1: Bag-1 peptide: internal sequence of 68 amino acids of Bag-1 (Bag1-L 202–269), HA-tagged, expressed from pcDNA3 (peptide)
chain: TPLSALGIQDGCRVMLIGKKNSPQEEVELKKLKHLEKSVEKIADQLEELNKELTGIQQGFLPKDLQAE
modifications: also: HA tag, end not given here
CHOP expression ([1]; Bag-1 peptide expressing 22Rv.1 cells, thapsigargin 300 nM): increased expression of the pro-apoptotic factor CHOP | GCN2 [1, 3]: upregulated in the peptide expressing cells | GCN2 phosphorylation [1, 3]: enhanced phosphorylation of GCN2 | ATF4 activation [1, 4]: activation of the downstream target ATF4 | eIF2α phosphorylation [1, 4]: increase in eIF2α phosphorylation | thapsigargin-induced expression of GRP78/BiP [1, 4]: inhibition of the thapsigargin-induced expression of GRP78/BiP | cleaved ATF6 [1, 5]: significant reduction of cleaved ATF6 | phosphorylation of PERK and IRE1 [1, 5]: reduced ER stress-induced phosphorylation of PERK and IRE1 | proliferation [2]: significantly reduced proliferation
